Measurements as given in the DeepSol protein solubility set.

Test: soluble on expression in E. coli; label from the status in PepcDB or PDB records

| Sequence | soluble on expression in E. coli |
| --- | --- |
| MGSDKIHHHHHHMNRLIGEKMNDVLSKVTDKEYLKQIEDVIKFHGHLSGGAFIGIQMYNIAKKVLDIKDTDRVYANCETRNCMPDAFQVLGNCTTGNKRLSIKDYDIMAVTVNKIIPENEVGTGVRIVFDHKKAEKYPALYNWFMNIKKVPHEEVISDLIDAGDSIYSWKSVEIHVSEKKPKFSAVCGLCGESFIKKGTDDENICPNCAEKSAE | not soluble |
| MGSDKIHHHHHHIPFDESIQTVDDVNLAVIGIYDAFKSSALYSGNLTILPDLQADLVYGVNGNTNTFGDIWRWKDILATNTSIEAVYAGLYNVINRCNFMLDRVDRVRNNTTDDKDLYKLDQCCGEAYFARAIAYSELVKMFCKAYESDEDAANQLGVILTKHYQGNEEMKRASLKASYEFILEDLDRAAQLLALDKDYDPSVDGALFNNATYFNEYTVYALRARVALYMRKWDEAIKYSSKVIDSEYYLLASCTRTISSGVSYYKYMWTDDMSTEAIWKVGFTINSYGGKLGQIFLNYNHVNYRPDYVPANWVFGLYDSNDLRPETIFQTLQTGFSHGLSWPLLIKYAGNNEFIAANILHVSMPKVLRLSEQYLIRAEAYVQQAQPDYGRAGKDITTLRTARYSTYGGSTALSASNAMEVIEAERVKELYMEGFRLHDLKRWHKGFERKPQDQSLANGSSLKVEADDPLFVWPIPQHELDAPGSQVQPNESNK | not soluble |
| MGSDKIHHHHHHMFRTFTEKRSEWKEQISEEIIPLIHRGMVNRKQWLLVNLKGRLWSGSLRDQFMFENIEWLRNYYKGEKLIVWAHNYHIRKNRSLLLELLRIKTVDHLLAKKYADRVFSVGFYAGSGTCLTPYKDLHEITMINQYHLELLLKELNGHTFFLPTNIGAKRNAWNKQAWWLLETRLLGMAPLVLKPIKAYDAIFFIKCVKPPQELGG | not soluble |
| VQLLEQSGAELVKPGASVKLSCTASGFNIEDSYIHWVKQRPEQGLEWIGRIDPEDGETKYAPKFQGKATITADTSSNTAYLHLRRLTSEDTAIYYCGRGAYYIKEDFWGQGTTLTVSSASTKGPSVFPLAPSSKAGGTAALGCLVKDYFPEPVTVSWNSGALTSGVHTFPAVLQSSGLYSLSSVVTVPSSSLGTQTYICNVNHKPSNTKVDKKVEPA | soluble |
| MGSDKIHHHHHHMQQLTKPKKIAIIGAGFRGITAAKIFQDAGIEFVILDKNDATGGVWRTFANQSSYVQIPEPEYRFDMDYPNGLPSEFTPRDEILAHAERFINVHGIGKHIIFKSEVFSIEDISDSKYRVYYKHDNANKSLEVDGIYYAGGRLHKRRTVHFPGEKNFQGLIRYGISDDMPISEYRGKKVAIIGCGAFAMENARTALLNGATHVTIIAKTINIVLPRMVMFWLNSMRLAPVAPLLKMSWKMYDWAGTNFMKENLDGFSINQRTVPIISDFIFLAHKVGKAEFKKDSIDFIDSNSVVTSDGTKIEADIILKCVGFEGQMDVFKQVYPPFEAVNWIWVNKKTNFVLDQDPEFGMTTKATKLMTSGSTLLLTKIAARVFAMSLINPSKFEQIIPVLPTSQNAGYNISYHMGSLSKLLVANKDIKKFILRTSAKKSKSMIEKGGNGKYLEFCKREWKQQCEALGVEEVEYPFVFPWWILLWENWQQLVNRFFLAAFPEQNIVRDIQPEDVEWSFISAES | not soluble |
| VVTRQLGRAPRGVLAIAYRCPNGEPGVVKTAPRLPDGTPFPTLYYLTHPVLTAAASRLETTGLMREMNRRLGQDAELAAAYRRAHESYLSERDALEPLGTTVSAGGMPDRVKCLHVLIAHSLAKGPGLNPFGDEALALLAAEPRTAATLVAGQWR | soluble |
| MNKAINIKKTAPLEVLHSELPYTQDPTALFHALCAGRSDCLLLESAEIDSKQNLKSLLLVDAAVRIVCEGHQVTYHALSANGQALLNIIHSNLTDRIPCKVEKAKLTLTFSTPCDTLDEDSRLREASSFDALRLVQHSFDLTDHGKFALFLGGLFAYDLVANFEPLGEAPADNQCPDYVFYVAETLMVIDHQRETCQLQATQFQPGDALHSQLKSRMREIRAQVNQKLPLPSAQSLSDVEVTTNISDAAFCDIVRDLKQYVVKGDVFQVVPSRRFRLPCPSPLAAYQRLKQSNPSPYMFYMQDERFTLFGASPESALKYEMHTNQVEIYPIAGTRRRGKRADGSIDFDLDSRIELELRTDKKENAEHMMLVDLARNDVARISQAGTRHVADLLQVDRYSHVMHLVSRVVGQLREDLDALHAYQACMNMGTLTGAPKIRAMQLIRDVEQARRGSYGGAVGYLTGEGDLDTCIVIRSAYVENGIAQVQAGAGVVYDSDPQAEADETRGKAQAVISAILYAHQGKE | not soluble |
| MITMKHVILVGDGMADYPLDELDGKTPLQVADKPNMDQLAGMGACGLLRTVPEGMEAGSDVANLSIMGYDPRRYYTGRGPLEAASIGVELGDDDVAFRCNLINADERIVDFNAGHIETAEASSLIDALNHELETRGRFYAGVSYRNLFVIEGRGYTSVRVEPPHDIVGESVAAHLPSGSEEADHIRELMLESAGVLRSHEVNLKRESMGKRPATMIWLWGQGLRPSMEPFSERYGIRGATITAVDLIKGLGVYAGLENIHVPGATGYLDTDYRAKGRYAAGALEEYDFLYVHVEAPDEAGHAGDAEEKIRAIENIDRFVLGRLLDALSDHEHRIAVLPDHPTPIEIRTHVPDPVPCILAGDGVDADQVKSYDEFTVREGSLGTWEAHRLMEIMMDPAARLRQLEHHHHHH | not soluble |
| MAERPRTIGNALEYVPEAIKTEAICLAALEIQRYGTVLKYIPDALKTEAMCLAAVQKYGYALEYVPEALKTEAICLAAGYEELQYWPEALKTEAVCLAAVEKNSKLLEFVPEALKTEAVCLAAGYKELQYWPEALKTEAPYLAAVQKDGSMLATVPEALKTEAFCLAAVQKNVRAFEYVPEALKTEAVCLAAVEKNGKLLEFVPEALRTEAICLAALQKDSSLLQYIPEALKTEAFCLTAVQKDSSLLQYVPEAFKTEVICLAAVQKDSSLLQYIPEALKTEAFYLAAVRKDGYSLKYIPEALKTEAICLAAVQKNGYLLKYVPEALKTEAICLSAVKQEGSALAYVPEALKTEALCLAAVQKNSSLLQYVPDTFKTEAFEAKMRSVISSGSGSSGYGIELIKWKFLSKEQKEWLEKIPYYYDSSKALEIPAELFTEEFCLAVVLKNSDGSVLQYIPDAKKTEAVCLAAVHERYKNALRYIPDALKT | not soluble |
| MIKIDNVKKFYTDKVKIGPLDIEIPKAGFTSLIGPNGAGKSTTLLMIGRLLDMDEGQIQVANMDVSESKSKDLAKVLTILRQENHFVTRLTVRQLVGFGRFPYSKGRLTKEDEVIISKYIDFLDLTNLENRYLDELSGGQRQRAYVAMVLCQETEYVLLDEPLNNLDVARSVQMMEHLRRAANEFGRTILTVMHDINFAAKYSDKICAMKDGQIAAFGTVEEVMDSTLLTDIFETRIEIIKGPYGPIAVY | not soluble |
| MASETENIKYEESFIKNTRGMKLFTCKWVPAKQEPKALVFICHGYAMECSITMNSTARRLVKAGFAVYGIDYEGHGKSDGLSAYVPNFDHLVDDVSTHYTSICEKEENKGKMRFLLGESMGGAVLLLLHRKKPQFWDGAVLVAPMCKIAEEMKPSPLVISILAKLSGVIPSWKIIPGQDIIETAFKQPEIRKQVRENPYCYKGRPRLKTAYELLRVSTDLEKRLNEVSLPFIVLHGEDDKVTDKAVSRQLYEVASSSDKTFKLYPGMWHGLLYGETPENIETVFADIIGWLDKKVADESGGFESELKRKNDGIPLKG | soluble |
| MSLKRMLAEFEKIQAILMAFPHEFSDWAYCIKEARESFLNIIQTIAKHAKVLVCVHTNDTIGYEMLKNLPGVEIAKVDTNDTWARDFGAISIENHGVLECLDFGFNGWGLKYPSNLDNQVNFKLKSLGFLKHPLKTMPYVLEGGSIESDGAGSILTNTQCLLEKNRNPHLNQNGIETMLKKELGAKQVLWYSYGYLKGDDTDSHTDTLARFLDKDTIVYSACEDKNDEHYTALKKMQEELKTFKKLDKTPYKLIPLEIPKAIFDENQQRLPATYVNFLLCNDALIVPTYNDPKDALILETLKQHTPLEVIGVDCNTLIKQHGSLHCVTMQLYEGGSHHHHHH | soluble |
| MKLKKTDVFNLDGTVKQTAFIHDQKTGKKNTLYLKPVQQDLMLYHAWLIQQNMNSEWLFPSTSRPDRPITEKQFYKIMARVGDLLGINYLGTHTMRKTGAYRVYTQSNYNIGLVMHLLNHSSEAMTLTYLGLDQASRENMLDQIDFG | not soluble |
| MGSDKIHHHHHHMDQSLFQNGNFQPLASRMRPQTLDEFVGQTHLLGKDKVLSNLIEHDEISSMIFWGPPGVGKTTLARIIARRTKAQFVTFSAVTSGIKEIKQVMKEAEQNRELGQKTIVFVDEIHRFNKAQQDAFLPYVERGSIILIGATTENPSFEVNAALLSRTRVFVLHGLTSAELVDLLQRALKDPRGYGLQKVKIGKKLLAQIADFANGDARIALNTLEMAVTNAETKGGVITVTQADVAQLLTKKALLYDKNGEEHYNLISALHKSMRNSDVDAAIYWLARMLEAGEDPLYVARRLVRFASEDIGMADSRALEITIAVYQACQFIGMPECTVHLTHAVTYLALAPKSNALYTAYEGAKKDATETLAEPVPLQIRNGVTDLMQDLGYGKDYQYAHNTKDKLTTMQTMPDNLIGKTYYHPTTQGSEAKVKERLEQIKAWHAQHPDPDSPKTKKKS | not soluble |
| MAVSVGEGPDTKPTARGQPAAVGRVVVLSGPSAVGKSTVVRCLRERIPNLHFSVSATTRCPRPGEVDGVDYHFIDPTRFQQLIDQGELLEWAEIHGGLHRSGTLAQPVRAAAATGVPVLIEVDLAGARAIKKTMPEAVTVFLAPPSWQDLQARLIGRGCETADVIQRRLDTARIELAAQGDFDKVVVNRRLESACAELVSLLVGTAPGSPGVPRGKLAAALEHHHHHH | soluble |
| ASTTTPTLRLNWLQPPFNNQKVRQALLHAVSQRDYMDAQVGDPKAYRVCWAMFGCDSPLASTAGVVSQDDEADLNAAKALLKESGYKNEKAVVLHATDYPPTSAIAPFTAQILRSIGMKAEVQSMDWATFLTRRGKQDPVEKGGWSVAYGSWNTLDLMSPIANLNLDGRGKEGYAGWTESAEMESLRTQYAQATEPASRQQIAAKIQQLAYDQVFYIPLGTY | not soluble |
| MAHHHHHHMKEYTGNRSVPTTIQNKKKSITEEINKSLHTQDSKNNQNNYEICLSDVSVSTISNSSGIDSDLYEEVIKKIKKEKKRKRKESKRDIYKEKVKYDKKESNSNDENKNDRGNEKDRKNNSDIENNSDSEYINDKEKDRKKRKHIDIDKKKRNKESHHHVNKKKDKNISTRKKRKYTSSLSSESYERRKDKKKKKEKYRNSESSYKSMVDENIPKDPFNPLLLAYEKKEKKKYRKNDEHNDLNDRWKHDRYENTSDDEDINIEKAYENSKPYFDPHEFPKILWKSKAGGVCVPQISDDKK | not soluble |
| MAHHHHHHMQQQPRPVVAQYAYIELLPLRYTGPAPPPAPACMDPTPDEQYRRGVAEKRAALKQKEARRQMSSSGSGMLASLKSAVSQAVMTMEKGAADVSTRTESQVRQLEYQYDCDRFNLHFHELAENGEVLLADYRCSAMHSGLRVNGHVQITPHYLCFLAETTSSIAKTTDAVMGVFVAARHPTSANDEPRNRPVGIKQVIALADIVSIQPSVVLESI | soluble |
